Biological target: microtubules (polymerized tubulin) (UniProt Q6B856)
Sequence (Q6B856 whole entry, looked up): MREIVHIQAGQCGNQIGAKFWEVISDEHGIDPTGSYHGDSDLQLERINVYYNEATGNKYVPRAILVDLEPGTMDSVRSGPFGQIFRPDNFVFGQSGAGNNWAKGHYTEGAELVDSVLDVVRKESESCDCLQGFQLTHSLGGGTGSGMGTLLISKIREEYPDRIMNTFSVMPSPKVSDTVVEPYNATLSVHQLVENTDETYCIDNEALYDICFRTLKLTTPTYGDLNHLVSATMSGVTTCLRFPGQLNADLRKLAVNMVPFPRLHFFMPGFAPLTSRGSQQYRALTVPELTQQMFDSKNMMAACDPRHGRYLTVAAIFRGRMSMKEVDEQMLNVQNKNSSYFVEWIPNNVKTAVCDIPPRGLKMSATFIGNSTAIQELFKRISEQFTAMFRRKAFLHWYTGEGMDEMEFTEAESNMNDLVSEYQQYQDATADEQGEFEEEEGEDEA

B1: GAS2-like 3 (G2L3), full length, GFP-tagged (natural protein)
chain: MQPAIQVWFGEDLPLSPRSPLTPRHGPGLANVCQYDEWIAVRHEATLLPMQEDLSIWLSGLLGIKVKAEKLLEELDNGVLLCQLIDVLQNMVKTCNSEESGNFPMRKVPCKKDAASGSFFARDNTANFLHWCRDIGVDETYLFESEGLVLHKDPRQVYLCLLEIGRIVSRYGVEPPVLVKLEKEIELEETLLNTSGPEDSISIPKSCCRHEELHEAVKHIAEDPPCSCSHRFSIEYLSEGRYRLGDKILFIRMLHGKHVMVRVGGGWDTLQGFLLKYDPCRILQFATLEQKILAFQKGVSNESVPDSPARTPQPPEMNPLSAVNMFQKQNSKPSVPVSIPKSKEKQGRPPGALVPASSLKGGNLGSMSVRSKLPNSPAASSHPKLKSSKGITKKPQAPSNNASSSLASLNPVGKNTSSPALPRTAPCISESPRKCISSPNTPKAKVIPAQNSADLPESTLLPNKCSGKTQPKYLKHNHISSRDNAVSHLAAHSNSSSKCPKLPKANIPVRPKPSFQSSAKMTKTSSKTIATGLGTQSQPSDGAPQAKPVPAQKLKSALNLNQPVSVSSVSPVKATQKSKDKNIVSATKKQPQNKSAFQKTGPSSLKSPGRTPLSIVSLPQSSTKTQTAPKSAQTVAKSQHSTKGPPRSGKTPASIRKPPSSVKDADSGDKKPTAKKKEDDDHYFVMTGSKKPRK
FRAP, t½ of recovery of GFP-tagged full-length G2L3 on MTs in NIH3T3 cells: 14.9 s

Reference: paper PMC3137072
